According to patent US9333272B2, “Fibrin binding peptide conjugates for diagnostic and therapeutic applications” (Bracco Imaging SpA, priority 2006, dated 2016):
Ends that are not written are not given here.

Target: T1, fibrin in tumor, Neuro 2A neuroblastoma (Mus musculus, UniProt E9PV24+Q8K0E8+Q8VCM7)
T1 construct: from tissue; host or cells: tumor stroma of living mice (BALB-neuT mammary tumor, TRAMP prostate tumor, Neuro-2a neuroblastoma in A/J mice)
T1 sequence (E9PV24 20-557 isoform E9PV24-2 limits assumed): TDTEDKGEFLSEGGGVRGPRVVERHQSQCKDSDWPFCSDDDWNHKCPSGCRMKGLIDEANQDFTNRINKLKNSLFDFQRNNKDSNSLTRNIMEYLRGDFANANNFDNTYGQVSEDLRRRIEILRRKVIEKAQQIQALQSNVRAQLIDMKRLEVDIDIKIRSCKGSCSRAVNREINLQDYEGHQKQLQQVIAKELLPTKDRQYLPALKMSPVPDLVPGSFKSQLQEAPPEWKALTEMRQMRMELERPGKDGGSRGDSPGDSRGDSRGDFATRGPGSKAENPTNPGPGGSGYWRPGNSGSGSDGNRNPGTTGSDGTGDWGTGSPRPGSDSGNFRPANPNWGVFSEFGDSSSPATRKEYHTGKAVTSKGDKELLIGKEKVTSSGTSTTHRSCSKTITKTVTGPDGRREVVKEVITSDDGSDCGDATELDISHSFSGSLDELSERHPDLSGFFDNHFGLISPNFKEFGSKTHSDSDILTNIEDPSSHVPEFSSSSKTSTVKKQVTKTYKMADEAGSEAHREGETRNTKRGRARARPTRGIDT
T1 sequence (Q8K0E8 35-481 limits assumed): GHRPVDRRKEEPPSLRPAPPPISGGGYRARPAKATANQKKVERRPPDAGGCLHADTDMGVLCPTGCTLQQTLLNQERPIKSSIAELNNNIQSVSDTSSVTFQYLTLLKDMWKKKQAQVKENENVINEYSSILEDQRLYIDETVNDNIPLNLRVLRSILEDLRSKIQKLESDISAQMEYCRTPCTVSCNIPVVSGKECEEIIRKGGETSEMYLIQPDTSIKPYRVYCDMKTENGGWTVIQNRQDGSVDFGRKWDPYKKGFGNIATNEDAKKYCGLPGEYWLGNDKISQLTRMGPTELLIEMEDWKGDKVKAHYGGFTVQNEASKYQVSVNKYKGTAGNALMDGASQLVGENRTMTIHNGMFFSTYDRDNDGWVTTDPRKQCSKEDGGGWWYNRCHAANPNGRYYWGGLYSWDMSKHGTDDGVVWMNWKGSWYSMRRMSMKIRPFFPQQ
T1 sequence (Q8VCM7 26-436): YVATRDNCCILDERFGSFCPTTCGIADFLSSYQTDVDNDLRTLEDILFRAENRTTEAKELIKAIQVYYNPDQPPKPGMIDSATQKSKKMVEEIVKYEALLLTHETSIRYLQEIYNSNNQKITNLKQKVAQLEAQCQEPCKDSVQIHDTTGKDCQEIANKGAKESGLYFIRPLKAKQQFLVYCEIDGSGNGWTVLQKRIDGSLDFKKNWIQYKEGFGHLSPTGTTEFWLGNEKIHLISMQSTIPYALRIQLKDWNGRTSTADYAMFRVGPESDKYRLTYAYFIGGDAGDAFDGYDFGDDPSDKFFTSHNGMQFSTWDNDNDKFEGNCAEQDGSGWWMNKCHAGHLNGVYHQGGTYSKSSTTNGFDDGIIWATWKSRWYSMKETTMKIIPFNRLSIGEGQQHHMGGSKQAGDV
Experiment: In vivo MRI, neuroblastoma tumor induced by Neuro 2A cells, Example 18
Conditions: 25 μmol/kg of complex, 4 h post injection, 2T
Procedure: This test has been performed on mice with neuroblastoma tumor induced by inoculation of 2.10^6 Neuro 2A cells.
Two groups of 5 mice each inoculated were formed to test the Reference compound 2 and the Chelate complex 1.
At day-10 post tumor cells inoculation, mice with similar tumor size (5-10 mm in diameter) were selected for the in vivo MRI tests. Before and post contrast administration, T1 and T2 high resolution 2D spin-echo and 3D gradient echo images were acquired. MRI was performed at 4 h and 24 h post injection. The maximum signal intensity was measured in the entire tumor area and in each image post contrast covering the whole tumor and compared to the pre-contrast images. At the end of MRI exams, all animals were sacrificed and the tumor, blood, liver, kidneys and femoral bone were removed and prepared for Gd assay by ICP. […]
The signal intensity was measured within a region of interest (ROI) including the entire tumor, drawn by an operator on each MR image using a dedicated software (MR Research Systems Ltd, Surrey UK). Signal intensity enhancement (Enh %) was determined as: Enh %=100*(SIx(t)−SI0)/SI0 where SI0 and SIx(t) were the signal intensity of tumor pre and post injection of the contrast agent (test articles or reference), respectively.

Chelate Complex 1: Gd chelate (four DTPA-Glu) conjugated via linker to fibrin-binding peptide SEQ ID NO:001 (WQPCPAESWTFCWDPGGGK; cysteine pairing not given here; also: Gd chelate (four DTPA-Glu) conjugated via linker, site not given here, metal complex: Gd)
Tumor signal enhancement (T1 weighted MRI), in words: high signal enhancement inside tumor
Tumor signal enhancement (T1 weighted MRI), in words (listed as chelate complex 1): significant tumor signal enhancement
